Test results as given in article PMC8178393.

Biological target: pyruvate kinase isozyme M2 (mouse (endogenous in splenic CD4+ T cells polarized into Th17 cells)) (UniProt P52480)
Test: cross-linking; Th17 cells treated with or without HCA for 24 h; cells washed with ice-cold PBS pH 8.0, disuccinimidyl suberate at 1 uM for 30 min at room temperature, quenched with 10 mM Tris, lysed, Western blot for monomeric and tetrameric PKM2

pyruvate kinase isozyme M2, P52480 1-531 (enzyme; other documents disagree on this pair), sequence (P52480 whole entry): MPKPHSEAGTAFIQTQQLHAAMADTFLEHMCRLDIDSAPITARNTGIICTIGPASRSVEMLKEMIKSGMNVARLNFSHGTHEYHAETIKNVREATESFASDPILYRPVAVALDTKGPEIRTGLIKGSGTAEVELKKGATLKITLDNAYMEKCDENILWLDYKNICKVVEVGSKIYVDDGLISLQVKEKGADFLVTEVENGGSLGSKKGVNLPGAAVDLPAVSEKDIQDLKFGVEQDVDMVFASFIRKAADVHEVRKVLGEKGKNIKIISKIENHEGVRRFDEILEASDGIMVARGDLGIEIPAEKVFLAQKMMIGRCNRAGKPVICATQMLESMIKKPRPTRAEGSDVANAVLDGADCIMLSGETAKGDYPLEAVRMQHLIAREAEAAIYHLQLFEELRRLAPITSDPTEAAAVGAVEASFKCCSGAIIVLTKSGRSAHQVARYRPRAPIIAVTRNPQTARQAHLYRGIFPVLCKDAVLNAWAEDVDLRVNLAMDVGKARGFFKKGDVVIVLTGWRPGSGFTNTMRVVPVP

pyruvate kinase isozyme M2, P52480 1-531 (enzyme; other documents disagree on this pair)
stoichiometry N: 4
